# According to publication PMC5748213:
# Columns and labels:
# [1] = biological target: retromer (VPS26–VPS29–VPS35) (UniProt O75436); assay: SEC-MALS
# human VPS29 (human) = human VPS29 (human) (UniProt Q9UBQ0); assay: ITC
# [2] = biological target: retromer (VPS26–VPS29–VPS35) (UniProt O75436); assay: ITC
Substance,Kd [2],other results
"RidL (Lpg2311/Ceg28), full length (from UniProt Q5ZT54 1-1167) (natural protein)",151 nM,stoichiometry N (RidL per retromer (printed as 1:1)) [1]: 1; stoichiometry N (RidL per retromer (printed as 2:2)) [1]: 1; Kd (human VPS29 (human)): 181 nM
RidL_(30–236) (domain or fragment),164 nM,
"TBC1D5TBC (TBC GAP domain of human TBC1D5, residues 1–419) (from UniProt Q92609 1-419) (domain or fragment)",450 nM,
"VARPc (VARP residues 396–746, the two cysteine-rich domains) (from UniProt Q96NW4 396-746) (domain or fragment)",3000 nM,
retromer (VPS26–VPS29–VPS35) (from UniProt O75436;Q9UBQ0;Q96QK1) (complex),,stoichiometry N [1]: 2
